# Target: F-actin (freshly polymerized actin) (UniProt P68135 1-377)
# Experiment: co-sedimentation
row,percent bound at 5 µM F-actin [%],Binder
1,~75,GST(541–605)PRG (domain or fragment) GKPKSSSQSTFHIPLSPVEVKPGNVRNIIQHFENNQQYDAPEPGTQRLSTGSFPEDLLESDSSRS
2,~25,"GST(541–605, I569A)PRG (domain or fragment) GKPKSSSQSTFHIPLSPVEVKPGNVRNIAQHFENNQQYDAPEPGTQRLSTGSFPEDLLESDSSRS"
3,~25,"GST(541–605, F572A)PRG (domain or fragment) GKPKSSSQSTFHIPLSPVEVKPGNVRNIIQHAENNQQYDAPEPGTQRLSTGSFPEDLLESDSSRS"
4,~25,"GST(541–605, I568A)PRG (domain or fragment) GKPKSSSQSTFHIPLSPVEVKPGNVRNAIQHFENNQQYDAPEPGTQRLSTGSFPEDLLESDSSRS"
5,~25,"GST(541–605, E573A)PRG (domain or fragment) GKPKSSSQSTFHIPLSPVEVKPGNVRNIIQHFANNQQYDAPEPGTQRLSTGSFPEDLLESDSSRS"

# Reference: PMC2728795 (Biochemistry, 2009)
